Results reported in publication PMC9900518.

Target: GST-BRCA1-CT-M1775R (BRCT), human BRCA1 BRCT domain residues 1599-1863 (human) (UniProt P38398)
Assay: pull-down; GST-tagged protein immobilised on glutathione-Sepharose beads; purified recombinant His-tagged protein; binding buffer 50 mM Tris-HCl pH 7.4, 100 mM NaCl, 0.4% Nonidet P-40, 10 mM MgCl2, 5 mM EDTA, 2 mM DTT; anti-His immunoblot

- fold change of binding against GST-BRCA1 BRCT wild type: 3 to 5 fold
Substance: His-GIV-CT (aa 1660-1870) wild type (domain or fragment)
